Measurements reported in US20100119511A1 (Biogen, published 2010).

Key:
human HER2-Fc = molecular target: T1, human HER2-Fc (human, UniProt P04626 23-652); experiment: ELISA on coated huHER2-Fc, detection anti-human kappa-HRP; value is C (midpoint) of the printed 4-P fit; x axis Fab equivalent concentration
T1 construct: extracellular domain; Homodimeric fusion protein from R&D Systems; also called human ErbB2-Fc; rhErbB2-Fc; not shown: Fc fragment of human IgG1

[1] = molecular target: T2, HVEM-Ig (species not stated); experiment: ELISA (Table 2; species of HVEM not given)
T2 construct: also called HVEM-Fc
Description: (§1) Human and murine ErbB2-Fc were obtained from R&D Systems. Wells of 96-well plates were coated with 2 ug/ml or 0.2 ug/ml of human or murine HER2-Fc by incubation overnight at 4-8° C. with either of these six proteins (80 ul/well of a 0.2 or 2 ug/ml solution in PBS). Wells were emptied, filled completely with a solution of PBS with 1% BSA (blocking buffer) and incubated at room temperature for 1 hour. Wells were emptied, washed twice PBS containing 0.05% Tween 20 (PBST) and filled with the samples (80 ul/well of 3× dilution series of the standard and supernatants in blocking buffer) prepared in another 96-well plate. After a 2-hour incubation at room temperature, the wells were emptied, washed three times with PBST and filled with a solution of HRP-conjugated goat pAbs anti-human kappa chain (80 ul/well of a 2000-fold dilution in blocking buffer). After 1-hour incubation, the wells were emptied and filled with a solution of HRP substrate prepared freshly. The color was left to develop for 3 minutes and was stopped by addition of an equal volume of 1N H₂SO₄. Absorbance was measured at 450 nm using a Plate Reader (SpectraMax, Molecular Devices). The data was processed and graphs were created using SoftMax Pro software.
Human and murine HVEM-Ig were expressed and purified in house.

[2] = molecular target: T3, LTβR-Ig (species not stated); experiment: ELISA (Table 2; species of LTbR not given)
T3 construct: also called LTβR-human Fc fusion
Description: as §1
Human and murine LTBR-Ig were expressed and purified in house.

murine HER2-Fc = molecular target: T4, murine HER2-Fc (mouse; human, UniProt P70424 23-653); experiment: ELISA on coated muHER2-Fc, detection anti-human kappa-HRP; value is C (midpoint) of the printed 4-P fit; x axis Fab equivalent concentration
T4 construct: extracellular domain; Homodimeric fusion protein from R&D Systems; also called murine ErbB2-Fc; not shown: Fc fragment of human IgG1

[3] = molecular target: T5, human HER2/ErbB2, full length, on cells (human, UniProt P04626 23-1255); experiment: FACS (Table 2; cells not given, Examples 14-16 use SKBR3 or CHO/hHER2)
T5 construct: whole, on cells; also called hHER2/ErbB2; wild type HER2/ErbB

[4] = molecular target: T3, LTβR-Ig (species not stated); experiment: FACS (Table 2; format not given, Example 16 detects LTbR-Ig on cell-bound fusion)
[5] = molecular target: T2, HVEM-Ig (species not stated); experiment: biolayer interferometry (Octet), receptor Fc fusion on anti-human Fc sensor, culture supernatant
Description: (§2) Anti-human Fc-specific biosensors (Fortebio SKU 18-0001) were hydrated in OB (1×PBS supplemented with 1 mg/ml BSA, 0.05% NaN₃, and 0.02% TWEEN 20) for at least five minutes prior to assays. For each assay, the respective receptor Fc fusion was diluted to 10 μg/ml in OB and allowed to bind to the biosensors for five minutes. The sensors were then incubated in the indicated culture supernatant for an additional five minutes, and subsequently transferred to fresh wells […].

[6] = molecular target: T6, HER2-Fc (species not stated); experiment: as above
T6 construct: probably human
Description: as §2

[7] = molecular target: T3, LTβR-Ig (species not stated); experiment: as above
Description: as §2

[8] = molecular target: T2, HVEM-Ig (species not stated); experiment: FACS (Table 2; format not given, Example 16 detects HVEM-Fc on cell-bound fusion)
[9] = molecular target: T6, HER2-Fc (species not stated); experiment: ELISA (Table 2; species of Her2 not given)
Description: as §1

[10] = molecular target: LTβR on human tumor cells (SKBR-3, HT29) (human, UniProt P36941 31-435); experiment: cell-based or functional assay
Sequence of LTβR on human tumor cells (SKBR-3, HT29) (P36941 31-435): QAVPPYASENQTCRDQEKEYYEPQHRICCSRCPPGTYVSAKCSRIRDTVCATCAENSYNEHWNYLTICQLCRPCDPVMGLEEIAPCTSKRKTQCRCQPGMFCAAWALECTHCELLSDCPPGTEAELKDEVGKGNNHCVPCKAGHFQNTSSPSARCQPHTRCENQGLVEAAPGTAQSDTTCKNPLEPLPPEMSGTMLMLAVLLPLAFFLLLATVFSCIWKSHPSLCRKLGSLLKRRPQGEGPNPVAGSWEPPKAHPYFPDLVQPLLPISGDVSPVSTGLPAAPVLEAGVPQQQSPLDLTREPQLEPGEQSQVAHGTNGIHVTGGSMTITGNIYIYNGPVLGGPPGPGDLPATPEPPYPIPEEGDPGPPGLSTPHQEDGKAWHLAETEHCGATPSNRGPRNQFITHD

T2 sequence (Q92956 39-202): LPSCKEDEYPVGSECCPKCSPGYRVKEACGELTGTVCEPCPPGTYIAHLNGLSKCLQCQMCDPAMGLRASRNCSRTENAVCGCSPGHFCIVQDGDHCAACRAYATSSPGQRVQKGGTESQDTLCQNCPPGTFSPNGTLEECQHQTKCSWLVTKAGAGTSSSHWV
T3 sequence (P36941 31-227): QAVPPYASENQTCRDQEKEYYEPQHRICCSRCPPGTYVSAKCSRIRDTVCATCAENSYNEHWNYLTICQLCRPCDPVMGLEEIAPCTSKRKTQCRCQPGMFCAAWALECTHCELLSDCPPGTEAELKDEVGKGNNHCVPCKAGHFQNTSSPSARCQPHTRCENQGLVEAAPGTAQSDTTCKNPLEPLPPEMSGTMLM
T4 sequence (P70424 23-653): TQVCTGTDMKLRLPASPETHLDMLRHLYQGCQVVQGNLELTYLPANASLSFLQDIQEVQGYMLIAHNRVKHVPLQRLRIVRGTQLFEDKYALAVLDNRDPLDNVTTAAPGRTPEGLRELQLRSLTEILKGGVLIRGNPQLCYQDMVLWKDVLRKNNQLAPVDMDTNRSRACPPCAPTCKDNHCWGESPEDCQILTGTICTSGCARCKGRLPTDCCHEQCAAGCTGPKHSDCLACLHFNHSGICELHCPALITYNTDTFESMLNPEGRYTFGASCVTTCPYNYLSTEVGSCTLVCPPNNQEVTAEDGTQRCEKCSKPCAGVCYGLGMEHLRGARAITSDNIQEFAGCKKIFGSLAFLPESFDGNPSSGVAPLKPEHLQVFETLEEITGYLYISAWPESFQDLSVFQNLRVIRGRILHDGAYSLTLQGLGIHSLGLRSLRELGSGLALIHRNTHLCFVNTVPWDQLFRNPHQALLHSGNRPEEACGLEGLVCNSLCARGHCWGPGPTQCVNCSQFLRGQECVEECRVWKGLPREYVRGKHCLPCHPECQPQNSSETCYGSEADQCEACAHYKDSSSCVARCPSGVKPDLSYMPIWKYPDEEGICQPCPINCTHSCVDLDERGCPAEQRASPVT

B1: 71F10 Fab-hLIGHT fusion with the delta 4 linker (BIIB71F10-130) (other)
heavy: EVQLLESGGGLVQPGGSLRLSCAASGFTFSSYGMVWVRQAPGKGLEWVSSISSSGGLTWYADSVKGRFTISRDNSKNTLYLQMNSLRAEDTAVYYCASPPGIAVARDYWGQGTLVTVSSASTKGPSVFPLAPSSKSTSGGTAALGCLVKDYFPEPVTVSWNSGALTSGVHTFPAVLQSSGLYSLSSVVTVPSSSLGTQTYICNVNHKPSNTKVDKKVEPKSCDKLHWRLGEMVTRLPDGPAGSWQERRSHEVNPAAHLTGANSSLTGSGGPLLWETQLGLAFLRGLSYHDGALVVTKAGYYYIYSKVQLGGVGCPLGLASTITHGLYKRTPRYPEELELLVSQQSPCGRATSSSRVWWDSSFLGGVVHLEAGEEVVVRVLDERLVRLRDGTRSYFGAFMV
light: DIQMTQSPSSLSASVGDRVTITCRASQGISNYLAWYQQKPGKVPKLLIYAASTLQSGVPSRFSGSGSGTDFTLTISSLQPEDVATYYCQKYNSALLTFGGGTKVEIKRTVAAPSVFIFPPSDEQLKSGTASVVCLLNNFYPREAKVQWKVDNALQSGNSQESVTEQDSKDSTYSLSSTLTLSKADYEKHKVYACEVTHQGLSSPVTKSFNRGEC
modifications: Assembles as a trimer of heavy/light pairs; one pair is given.
notes: Fab heavy chain fused to human LIGHT extracellular portion; assembles as a trimer (66 kDa x3); also called pBIIB71F10-130; 71F10 Fab-Δ4huLIGHT
EC50 (human HER2-Fc): 0.00955 µg/mL
EC50 [1]: 0.01 nM
EC50 [2]: 0.01 nM
EC50 (murine HER2-Fc): 0.0114 µg/mL
EC50 [3]: 0.5 nM
EC50 [4]: 0.2 nM
koff [5]: 0.000122 s⁻¹
koff [6]: 0.000112 s⁻¹
koff [7]: 0.000168 s⁻¹
EC50 [8]: 0.5 nM
EC50 [9]: 0.05 nM
CCL2 (MCP-1) transcript, fold difference test/control, HT29 cells, quantitative RT-PCR [10]: 1050 fold
CCL5 (RANTES) transcript, fold difference test/control, HT29 cells, quantitative RT-PCR [10]: 1220 fold
CCL7 (MCP-3) transcript, fold difference test/control, HT29 cells, quantitative RT-PCR [10]: -527 fold
CCL21 transcript, fold difference test/control, HT29 cells, quantitative RT-PCR [10]: 546 fold
CCR4 transcript, fold difference test/control, HT29 cells, quantitative RT-PCR [10]: 1650 fold
CXCL2 transcript, fold difference test/control, HT29 cells, quantitative RT-PCR [10]: 1130 fold
CXCL3 transcript, fold difference test/control, HT29 cells, quantitative RT-PCR [10]: 1090 fold
CXCL5 (ENA-78/LIX) transcript, fold difference test/control, HT29 cells, quantitative RT-PCR [10]: 1810 fold
CXCL9 transcript, fold difference test/control, HT29 cells, quantitative RT-PCR [10]: 675 fold
CXCL10 (IP-10) transcript, fold difference test/control, HT29 cells, quantitative RT-PCR [10]: 5270 fold
CXCL11 (I-TAC/IP9) transcript, fold difference test/control, HT29 cells, quantitative RT-PCR [10]: 1730 fold
IFNA2 transcript, fold difference test/control, HT29 cells, quantitative RT-PCR [10]: 193 fold
IL5 transcript, fold difference test/control, HT29 cells, quantitative RT-PCR [10]: 940 fold
IL8 transcript, fold difference test/control, HT29 cells, quantitative RT-PCR [10]: 373 fold
IL10RA transcript, fold difference test/control, HT29 cells, quantitative RT-PCR [10]: 3440 fold
LTB transcript, fold difference test/control, HT29 cells, quantitative RT-PCR [10]: 2910 fold
TNF transcript, fold difference test/control, HT29 cells, quantitative RT-PCR [10]: 7370 fold
